Reference: paper PMC9025068, “DNA-Binding Properties of a Novel Crenarchaeal Chromatin-Organizing Protein in Sulfolobus acidocaldarius” (Biomolecules, 2022)

Tests used:
[1] = tested on: Sul12a (Sulfolobus acidocaldarius); experiment: EMSA; conditions: KDapp, salmon sperm DNA 25 ug/mL, 20 mM Tris-HCl pH 8.0, 1 mM MgCl2, 0.1 mM DTT, 12.5% glycerol, 50 mM NaCl, 0.4 mM EDTA, 37 C 20 min, 0.1 nM 32P-DNA with 25 ug/mL salmon sperm DNA …
[2] = biological target: the molecule itself; experiment: SDS-PAGE with western blot; 100 and 250 ug purified Sul12a separated by SDS-PAGE (4-12%), blotted on PVDF, probed with HRP-conjugated anti-polyHistidine antibodies

Which Kd ([1]; F1 + F3 mixture) does the source give for argO promoter region (F3) here?
Its Kd is 3700 nM.

With carAB promoter region (F2) as the molecule, how does the Kd ([1]; F1 + F2 mixture) read?
Its Kd is 1200 nM.

B1: Sul12a (natural protein, Sulfolobus acidocaldarius, UniProt Q4JA12 1-107, looked up)
chain: MELTPRLQDIISILKEKGGSVNIRDLALQLKISPKTAKGYARELYRLGYIEMDENENMILKRENPENITDLKKTVETHTAEIEALKKEVEFLKEELSRFRGTKKVKV
notes: Sul12a of Sulfolobus acidocaldarius, encoded by the 324-bp gene Saci_1012; 107 amino acids, native MW 12.4 kDa (recombinant His-tagged monomer 14.3 kDa); the Saci_1012 coding region was amplified from genomic DNA and cloned in pET-45b(+); The preparation also held lower-MW species without tag (contaminants or degradation products); also called Saci_1012; not shown: His tag, N-terminal, kept
With B1 as the molecule, how does the “stoichiometry N” value [2] read?
Its value is 2.
